Residue numbers refer to the chain shown, from its start.
B1: PRO-II (dsDNA)
DNA 1: AAATGAGATAGATTTCGGTGAACCCGGACCCTTGCTAGGCTCGAAGAAACGTCCGAAAAGATCAGAGCAATGGCTTCACACGAG
DNA 2: CTCGTGTGAAGCCATTGCTCTGATCTTTTCGGACGTTTCTTCGAGCCTAGCAAGGGTCCGGGTTCACCGAAATCTATCTCATTT
B2: PRO-II-p (dsDNA)
DNA 1: B1 DNA 1 with A12G, T13C, T14C, T15C
DNA 2: B1 DNA 2 with A70G, A71G, A72G, T73C

Biological target: RsaL (Pseudomonas aeruginosa PA1201, UniProt Q9X7H4 1-80)
Assay: EMSA; EMSA: 10 mM Tris-HCl pH 8.0, 1 mM EDTA, 5 mM MgCl2, 50 mM KCl, 2.5% glycerol, 30 ug/ml poly(dI-dC), 0.05% NP-40, room temperature 20 min; footprint: 100 ng probe in 40 ul, 30 min room temperature, DNase I 1 min 25 C
Conditions: protein: recombinant, tags: His (pET28a), chain copies: 2

Binder | binding result (label: Cy5) | binding result
B1 | binds | –
B2 | – | no binding
